According to patent publication US8536113B2, “EGFR binding peptides and uses thereof” (Janssen Biotech, Inc., priority 2006, dated 2013):
Bridges are numbered along the chain shown (N, C = ends). Where no end group is shown, it is not given here.

System: MCF-7
Assay: Flow cytometry of phage binding to EGFR negative tumor cells
Assay type: cell-based, human
Conditions: EGFR positive versus EGFR negative cells
Experimental: (§1) Flow cytometry. To evaluate whether the selected peptides from phage display can bind to tumor cells that overexpress EGFR, A431 cells (epidermoid cancer) or an EGFR negative tumor cells, MCF-7 (breast carcinoma) were tested in a flow cytometry assay using fluorescence detection (FACS). For P145, PP146 and their control phage, 2.5×10^5 A431 cells were resuspended in 25 μl of flow staining buffer (dPBS with 1% BSA, 0.09% sodium azide) and incubated with 25 μl of phage clones for 1 hour at 4° C. […] Cells were washed two times with flow staining buffer and then incubated with 0.5 μg of mouse anti M13/fd/F1 filamentous phages monoclonal antibody conjugated to FITC (Fitzgerald Industries International, Inc. Concord, Mass.) for 45 minutes at 4° C. Cells were washed two times with flow staining buffer and acquired by FACSCalibur (BD, Franklin Lakes, N.J.) to detect bound phages on tumor cell surface. Results.
(§2) A431 cells (epidermoid cancer) which overexpress EGFR and EGFR-negative tumor cells, MCF-7 (breast carcinoma) were tested in a flow cytometry assay. Tumor cells (A431 and MCF-7) were harvested with 0.25% tyrpsin-EDTA and washed twice with FACS staining buffer (dPBS with 1% BSA, 0.09% sodium azide). […] After binding at 4° C., cells were washed twice with FACS staining buffer to remove unbound phage and then incubated with 0.5 μg of mouse anti-M13 monoclonal antibody conjugated to FITC (Fitzgerald Industries International, Inc. Concord, Mass.) for 1 hour at 4° C. Mouse anti-M13-FITC incubated with cells without phage was used as background binding. Cells were washed twice with FACS staining buffer to remove unbound detection antibody.

For “SGCLDALWQCVY (S16 and S17 hits Phage 174) [P174]”, the “binding to A431 compared with MCF-7” value was “greater to A431 than to MCF-7”.
With VLCHRYYHPICYT [P145] the “binding to A431 compared with MCF-7” value was “greater binding to A431 than MCF-7 cells”.

Molecular target: T1, sEGFR-MMB (Homo sapiens, UniProt P00533)
T1 construct: made in house; host or cells: Human Embryonic Kidney cells (293E)
Assay: Phage ELISA screening of panning hits
Assay type: binding
Conditions: phage clone culture supernatant; background typically <200 units
Experimental: Phage Screening. Individual phage clones from selections were amplified and screened for EGFR binding by phage ELISA. To amplify pIII phage for screening, phage eluates from round 3 were diluted appropriately and plated with a lawn of XL-1 Blue to yield isolated single plaques. 24 plaques from each pool were picked and inoculated into a culture of XL-1 Blue host cells. The cultures were shaken at 37° C. for 4.5 hr and the cells were removed by centrifugation. To amplify pIX-displaying phagemid clones, phage eluates were infected into XL-1 Blue and plated onto LB-ampicillin plates. Individual colonies were cultured in 1 ml volumes and rescued with VCS-M13 helper phage. Bacterial cells were removed from phage cultures by centrifugation at (2250×g, 7 min) and the phage-containing supernatant was saved.
The protein solution was removed and wells were rinsed twice with Tris-Buffered Saline containing 0.05% Tween-20 (TBS-T) using a plate washer (Embla). The wells were blocked with Starting Block in TBS for 1 hr at room temperature and rinsed twice with TBS-T. An equal volume of phage supernatant and Starting Block in TBS were incubated in the wells for 1 hr at room temperature, and the wells were rinsed five times with TBS-T. Anti-M13/horseradish peroxidase conjugate (Amersham), diluted 1:5000 in Starting Block in TBS, was added into the wells and incubated for 1 hour at room temperature, and then the wells were rinsed five times with TBS-T. Finally, chemiluminescent peroxidase substrate (Roche) was added to the wells, and chemiluminescence was measured on a Tecan plate reader.
Sequences and ELISA signal (background typically <200 units) are given, along with a consensus sequence, if any. Cysteines that are fixed in the library design are underlined.

Point of comparison: “37 (MICYLVDSGNIICYK; Peptide family identified from the S19 library) [compound 37]”, ELISA signal 8806 units. Against it:
- 18 (PIFSSLPVLYCTSQL; S15 library, which displays a random linear 15-mer) [compound 18] — lower, 1425 units
- 34 (YDCVSFGAVAYCPQ; Peptide family identified from the S18 library) [compound 34] — lower, 3205 units
- SGCLDALWQCVY (S16 and S17 hits Phage 174) [P174] — higher, 34641 units
- 44 (WMCFLEGYGASLMCQC; Peptide family identified from the S20 library) [compound 44] — lower, 4795 units
- 15 (NWFSLPTLLCFPLNP; S15 library, which displays a random linear 15-mer) [compound 15] — lower, 3669 units
- 43 (PTCDSATRRVLTICAD; Peptide family identified from the S20 library) [compound 43] — lower, 5420 units
- 47 (SVCVGTAFPGWMVCGP; Peptide family identified from the S20 library) [compound 47] — lower, 4771 units
- RWCYFWWITICEL (S16 and S17 hits Phage 178) [P178] — lower, 7913 units
- 31 (TDCVIFGLETYCLR; disulfide 3-12 (inferred)) [compound 31] — higher, 37925 units
- 14 (HVSLQSLPELICVVS; S15 library, which displays a random linear 15-mer) [compound 14] — lower, 1362 units
- 49 (LLCATTSFRDWFVCFT; Peptide family identified from the S20 library) [compound 49] — lower, 4512 units
- 45 (DSCCSFLTDGTVVCSL; Peptide family identified from the S20 library) [compound 45] — higher, 9544 units
- 24 (AKCIAFGNSVYCLN; Peptide family identified from the S18 library) [compound 24] — higher, 31524 units
- 38 (YDCMIRADGSLICWC; Peptide family identified from the S19 library) [compound 38] — lower, 1286 units
- 10 (YRLFVDESIFFCTRL; S15 library, which displays a random linear 15-mer) [compound 10] — lower, 3078 units
- 39 (GPCVLIRDYYLLCLE; disulfide 3-13 (inferred)) [compound 39] — higher, 13951 units
- LPDDSLPELICKVRG (S15 library, which displays a random linear 15-mer) [P175] — lower, 6790 units
- 11 (ELGLPTLLCWPTDTL; S15 library, which displays a random linear 15-mer) [compound 11] — higher, 9380 units
- 21 (LPDLICAVDSGTSGA; S15 library, which displays a random linear 15-mer) [compound 21] — lower, 1161 units
- 46 (YICTPSDIDSWYICYL; Peptide family identified from the S20 library) [compound 46] — lower, 6615 units
- 30 (AYCSFVAGDLVCQV; Peptide family identified from the S18 library) [compound 30] — higher, 19792 units
- 32 (SDCVLFGSKLFCSA; families were identified from the S18 library) [compound 32] — higher, 35327 units
- KTCVSTTFDLWFVCFA (disulfide 3-14 (inferred)) [P176] — higher, 37440 units
- 28 (TDCIRFGVLWYCLV; Peptide family identified from the S18 library) [compound 28] — lower, 4746 units
- 23 (AGCIAFVDVVYCAR; Peptide family identified from the S18 library) [compound 23] — lower, 6377 units
- 41 (CDCREAVSASLVCRY; Peptide family identified from the S19 library) [compound 41] — lower, 3347 units
- 35 (RGCVVFGDNIYCIV; Peptide family identified from the S18 library) [compound 35] — higher, 21963 units
- 16 (STITSLPTLQCWPIL; S15 library, which displays a random linear 15-mer) [compound 16] — higher, 13332 units
- 20 (TVFTLPELVCVVAGT; S15 library, which displays a random linear 15-mer) [compound 20] — lower, 1515 units
- 29 (RACITFGKVVYCEV; Peptide family identified from the S18 library) [compound 29] — higher, 30741 units
- DACTMVFLWCSL (S16 and S17 hits Phage 177) [P177] — lower, 8655 units
- 26 (KHCILFEKTVYCAK; Peptide family identified from the S18 library) [compound 26] — higher, 9111 units
- 33 (TDCVRFGETIYCIV; Peptide family identified from the S18 library) [compound 33] — higher, 13291 units
- 19 (GADTLPDLLCWESSL; S15 library, which displays a random linear 15-mer) [compound 19] — lower, 5722 units
- 25 (RDCIIFDKTVYCVI; Peptide family identified from the S18 library) [compound 25] — higher, 17060 units
- 17 (PIDDESLPVLYCVTS; Random peptide) [compound 17] — lower, 1785 units
- 40 (AFCRLDFNQWLTCLV; Peptide family identified from the S19 library) [compound 40] — lower, 2581 units
- 12 (VSGILPILVCHPAAT; S15 library, which displays a random linear 15-mer) [compound 12] — lower, 1107 units
- 27 (DSCIQFANLLYCAI; Peptide family identified from the S18 library) [compound 27] — higher, 53162 units

System: A431 cells
Assay: Flow cytometry of phage binding to tumor cells
Assay type: cell-based, human
Conditions: not given
Experimental: as §1, §2

“SGCLDALWQCVY (S16 and S17 hits Phage 174) [P174]” was tested, and the “binding to A431 relative to positive control EGF phage” value was “comparable to that by a positive control phage”.
VLCHRYYHPICYT [P145] was tested, and the “binding to A431 relative to positive control EGF phage” value was “weaker than that exhibited by a positive control phage”.
In the case of “KTCVSTTFDLWFVCFA (disulfide 3-14 (inferred)) [P176]”, the “binding to A431 relative to positive control EGF phage” value is reported as “comparable to that by a positive control phage”.
In the case of “TLCRSFFHPLCYA (Sequences of EGFR-Binding Peptides from pIII phage library (CNL5 P146))”, the “binding to A431 relative to positive control EGF phage” value is reported as “weaker than that exhibited by a positive control phage”.

Same assay, conditions: anti-phage-FITC antibody, 4° C.

In the case of “SGCLDALWQCVY (S16 and S17 hits Phage 174) [P174]”, the “binding to A431 tumor cells” value is reported as “displayed binding”.
With VLCHRYYHPICYT [P145] the “binding to A431 tumor cells” value was “displayed binding”.
For “KTCVSTTFDLWFVCFA (disulfide 3-14 (inferred)) [P176]”, the “binding to A431 tumor cells” value was “displayed binding”.
“TLCRSFFHPLCYA (Sequences of EGFR-Binding Peptides from pIII phage library (CNL5 P146))” was tested, and the “binding to A431 tumor cells” value was “displayed binding”.
